Experimental data published in US20220275088A1 (Dana-Farber, published 2022).
Each block holds one binder with its values, some of them ahead of it.

Legend:
[1] = molecular target: human PD-1 on cells (transfected Expi293 cells, PHA-cultured T cells, cells of the Promega PD1-PDL1 bioassay, … (human, UniProt Q15116 25-288)); test: cell-based or functional assay
[2] = molecular target: T1, mouse PD-1 on transiently transfected Expi293 cells (mouse, UniProt Q02242 25-288); test: flow cytometry on transiently transfected Expi293 cells, anti human Fc-APC
T1 construct: whole, on cells; also called mPD-1
T1 sequence (looked up): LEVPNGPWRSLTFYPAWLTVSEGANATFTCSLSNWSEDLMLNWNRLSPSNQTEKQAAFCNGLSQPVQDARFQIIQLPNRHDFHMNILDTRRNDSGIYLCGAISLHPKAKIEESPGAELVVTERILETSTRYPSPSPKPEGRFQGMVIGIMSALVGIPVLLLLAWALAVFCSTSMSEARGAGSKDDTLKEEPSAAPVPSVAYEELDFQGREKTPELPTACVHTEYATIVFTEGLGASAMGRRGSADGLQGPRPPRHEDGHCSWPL
Procedure: 3E5 transiently transfected Expi293 cells were suspended in 100 ul MACS buffer and added to each well. 50 ul of each antibody dilution were then mixed with the cells and the plate was incubated at 4° C. for 30 min. Following incubation, the plate was washed 2× with MACS buffer and then incubated with 1 ul/well anti human Fc-APC (Biolegend #409306). The plate was incubated for 25 min at 4° C. and then washed 3× before running the samples.

Sequence of human PD-1 on cells (transfected Expi293 cells, PHA-cultured T cells, cells of the Promega PD1-PDL1 bioassay, … (Q15116 25-288): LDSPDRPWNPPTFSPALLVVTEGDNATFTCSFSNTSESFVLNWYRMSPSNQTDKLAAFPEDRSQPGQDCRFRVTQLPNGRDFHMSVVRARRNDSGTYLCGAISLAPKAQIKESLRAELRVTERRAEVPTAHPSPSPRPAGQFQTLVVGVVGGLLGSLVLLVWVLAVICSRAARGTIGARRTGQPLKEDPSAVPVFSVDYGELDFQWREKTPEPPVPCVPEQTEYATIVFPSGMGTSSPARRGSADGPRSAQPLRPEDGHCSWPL

fold induction (RLU stimulated/RLU unstimulated), Promega PD1-PDL1 bioassay [1]: ~0.5 fold of the signal of pembro and nivo
B1: P4-B3 IgG1 wild type monomer (antibody, V domains shown)
VH: QVQLVQSGGGLVQPGRSLRLSCAASGFTFDDYAMHWVRQAPGKGLEWVSGISWNSGSIGYADSVKGRFTVSRDNAKNSLYLQMNSLRAEDTAVYYCASDYGDKYYYYGMDVWGKGTTVTVSS
VL: QPGLTQPPSASGTPGQRVTISCSGSSSNIGSNTVNWYQQFPGKAPKLLIFNDNQRPSGVPDRFSASKSGTSASLAISGLQSEDEADYYCAAWDGGLNGRGVFGGGTKLTVLG

binding result [2]: binds
B2: P4-B3 (Example 8, format not stated) (antibody, V domains shown)
VH: B1 VH
VL: QPGLTQPPSASGTPGQRVTISCSGSSSNIGSNTVNWYQQFPGKAPKLLIFNDNQRPSGVPDRFSASKSGTSASLAISGLQSEDEADYYCAAWDGGLNGRGVFGGGTKLTVL
notes: Detected with anti human Fc-APC, so it carries a human Fc
